Numbering of substitutions follows the chain as printed.
B1: PRT-270 (protein)
chain: MVTSVWTKGVTPPTDFIYGEDVLHAPYKAGQGWYDITKLFNGKDDLLCGAATAGNMLHWWFDQNKEQIENYLKKHPEKQKINFNGEQMFDVKEAIDTKDSQLDSKLFEYFLEKAFPNLSTKHLGVFPDHVIDMFINGYRLSLLNHGPTPVKRGSKDPRGGIFDAVFTRGDQSKLLTNRHDLKNKTLKEISDLIKQELTEGKALGISHTYANGRINHVINLWGADFDAEGNLEAIAVTDSDSNASIGMKKYFVGVNSSGKVAISAKEIEEDNIGAQVLGLFTLSTGQDIWNQTN
B2: PRT-559 (protein)
chain: MANQEIRYSEETPKTITSIWTKGVTPPTDFIKTEDVLHAPYVANQGWYDITKTFNGKDDLLCGAATAGNMLHWWFDQNKEEIENYLKKHPEKQKINFNGEQMFDVKEAIDTKDSQTDSALFEYFKDKAFPYLSTKHLGVFPDHVIDMFINGYRLSLTNHGPTPVKDGTKDPRGGIFDAVFTRGDQTKLLTERHDFKEKTLNEISDLIKQELTEGKALGLSHTYANVRINHVINLWGADFNSEGNLEAIYVTDSDSNASIGMKKYYVGVNAAGKVAISAKEIEDDNIGAQVLGLFTLSTGQDIWEQTNLEHHHHHH
B3: PRT-554 (protein)
chain: B2 chain with I19V, T33N, L37F, E122N, E191A, N240D
B4: PRT-545 (protein)
chain: MANQEIRYSEETPKTITSVWTKGVTPPTDFIKNEDVLHAPYIANQGWYDITKTFNGKDDLLCGAATAGNMLHWWFDQNKEEIERYLKKHPEKQKINFNGEQMFDVKEAIDTKDSQTDSALFEYFKDKAFPYLSTKHLGVFPDHVIDMFINGYRLSLTNHGPTPVKRGTKDPRGGIFDAVFTRGDQSKLLTSRHDFKEKTLKEISDLIKQELTEGKALGLSHTYANVRINHVINLWGADFDSEGNLEAIYVTDSDSNASIGMKKYYVGVNSAGKVAISAKEIEGDNIGAQVLGLFTLSTGQDIWEQTNLEHHHHHH
B5: PRT-571 (protein)
chain: B4 chain with K14S, D29Q, K32Q, E81Q, R84N, K201N, D240N, S241A, S270A, E304N
B6: PRT-596 (protein)
chain: B4 chain with K14S, K32Q, E81Q, R84N, K201N, Q209K, D240N, S241A, E304N
B7: PRT-587 (protein)
chain: B4 chain with K32Y, E81Q, A119K, K201N, D240N, Q300K
B8: PRT-534 (protein)
chain: MANQEIRYSSDSEWANKKVWVYGITPPEEGAWKYSTYYLPWKKEYGWYDCNKRNPTADGMMCWAATASNLLHWWIAQNKEYIDLYGDKYKGPDKINFNGEQMFDVKEYIDPLDKPQESDIFQCFIDKSFADLSTKHEAGYGDAGINWFIHGIIPSSPAHGPTPVKLDYPYNPAGYFKDVFPRGDGVVLLGNNGDFKELSKERFNETIKDALKNKKAIGLSIGPVNVRSSHVVTIWGAEFDENGDVSYIYMADNNDNWGVGCIRYQIVYEEGGTYTCYKTEIIPSDRPIPINRLVTLELGEEYWKQTNLEHHHHHH
B9: PRT-583 (protein)
chain: MANQEIRYSKAKPKVITSVWTKGVTPPTQFTKNEDVFHAPYLANQGWYDITKTFNGKDDLLCGAATAGNMLHWWFDQNKEQIERYLKKHPEKQKINFNGEQMFDVKEAIDTKDSQTNSKLFNYFKEKAFPYLSTKHLGVFPDHVIDMFINGYRLSLTNHGPTPVKEQNKDPRGGIFDDVFTRGDQSKLLTSRHDFKEKTLKEISDLIKQELKEGKALGLSHTYANVRINHVINLWGADFDAEGNLIAIYVTDSDSNASIGMKKYYVGVNSAGKVAISAKEIEDDNIGAQVLGLFTLSTGKDIWEKTNLEHHHHHH
B10: PRT-253 (protein)
chain: MVTSVWTKGVTPPTNFTYGEDVLHAPYVANQGWYDITKTFNGKDDLLCGAATAGNMLHWWFDQNKEQIENYLKKHPEKQKINFNGEQMFDVKEAIDTKDSQLDSKLFEYFLEKAFPNLSTKHLGVFPDHVIDMFINGYRLSLLNHGPTPVKRGSKDPRGGIFDAVFTRGDQSKLLTNRHDFKEKTLKEISDLIKQELTEGKALGISHTYANVRINHVINLWGADFDAEGNLEAIYVTDSDSNKSIGMKKYFVGVNSDGKVAISAKEIEEDNIGAQVLGLFTLSTGQDIWNQTN
B11: PRT-262 (protein)
chain: B10 chain with D45N, M88L, P157K, D170V, Y235A, S241T, K243A, D257S
B12: PRT-269 (protein)
chain: B1 chain with L39T, G212V
B13: PRT-254 (protein)
chain: B10 chain with F251P, D257N
B14: PRT-245 (protein)
chain: MVTSVWTKGVTPPANFTQGEDVFHAPYVANQGWYDITKLFNGKDDLLCGAATAGNMLHWWFDQNKDQIKRYLEEHPEKQKINFNGEQMFDVKEAIDTKNHQLDSKLFEYFLEKAFPNLSTKHLGVFPDHVIDMFINGYRLSLLNHGPTPVKEGSKDPRGGIFDAVFTRGDQSKLLTSRHDFKEKNLKEISDLIKKELTEGKALGLSHTYANGRINHVINLWGADFDSNGNLKAIAVTDSDSNASIGMKKYFVGVNSSGKVAISAKEIKEDNIGAQVLGLFTLSTGQDSWNQTN
B15: PRT-246 (protein)
chain: B14 chain with E108D, L111K, N117Y, L143T, G212V, A235Y, A243P
B16: PRT-261 (protein)
chain: MVTSVWTKGVTPPTNFTYGEDVLHAPYVANQGWYDITKLFNGKDNLLCGAATAGNMLHWWFDQNKEQIENYLKKHPEKQKINFNGEQLFDVKEAIDTKDSQLDSKLFDYFKEKAFPNLSTKHLGVFPDHVIDMFINGYRLSLLNHGPTPVKRGSKDKRGGIFDAVFTRGVQSKLLTNRHDFKEKTLKEISDLIKQELTEGKALGISHTYANGRINHVINLWGADFDAEGNLEAIYVTDSDTNPSIGMKKYFVGVNSSGKVAISAKEIEEDNIGAQVLGLFTLSTGQDIWNQTN
B17: PRT-544 (protein)
chain: MANQEIRYSKNENPNVTIKWVHGIGEPTQAEKEKIEFWWYETTTTKFFNNRKVDHLGDGNQCWAKTDSNMLHWWFVQNEENINQYIAKKNITGKINFNGEQMFDVKEGIDDNQEKEKSYIANTFRTKKAHNLSTKHKGDYIINGLSWYLYGLNNFKIAHGPTPVKKKPKFYGPALFKDVFNRGDGNTPIIVETDFKEYTKKEFEDTLSAALDSKKAIGINIYGSNVDYQHAITLWGAAFDEEENIIAIYVVDNNFKFENRIFPYGIWYQKEGRPYLFNYEINSFVKNRYVGEVITLDKGEAQWQETNLEHHHHHH

Biological target: pooled human IgG (human IgG1, 2, 3 and 4)

Row | Protein | Enzyme Activity Endpoint Assay: Fab′2 [ng/µL] | Enzyme Activity Endpoint Assay: Fc [ng/µL] | Enzyme Activity Endpoint Assay: IgG [ng/µL] | Enzyme Activity Endpoint Assay: scIgG [ng/µL]
1 | B1 | 376 | 288 | 100 | 311
2 | B2 | 657 | 158 | 0 | 0
3 | B3 | 580 | 350 | 36 | 0
4 | B4 | 690 | 435 | 0 | 0
5 | B5 | 786 | 383 | 0 | 295
6 | B6 | 753 | 348 | 0 | 263
7 | B7 | 347 | 156 | 0 | 120
8 | B8 | 0 | 0 | 1380 | 0
9 | B9 | 748 | 396 | 0 | 261
10 | B10 | 912 | 334 | 0 | 0
11 | B11 | 50 | 191 | 289 | 802
12 | B12 | 98 | 189 | 86 | 592
13 | B13 | 677 | 359 | 0 | 0
14 | B14 | 423 | 277 | 46 | 204
15 | B15 | 666 | 348 | 0 | 221
16 | B16 | 0 | 76 | 615 | 317
17 | B17 | 12 | 170 | 314 | 748
